Data reported in patent US20210403552A1 (SHANGHAI GENBASE BIOTECHNOLOGY, published 2021).
Where a chain is given by its changes, count along the chain named. Where two headings read alike, the source gives them in different places.

B1: 44A8-chIgG1 (antibody, V domains shown)
VH: EVRLQQSGPELVKPGASVKMSCKASGYTFTDYNMHWVKQSHGKSLEWIGYINPKNGGIRYNQKFTGKATLTVNKSSSTAYMELRSLTSEDSAVYYCARGGYYGNTLDNWGQGTSVTVSS
VL: DIVMTQSPSSLTLTAGEKVTMSCKSSQSLLNSGNQKNYLTWYQQKPGQPPKLLIYWASTSESGVPDRFTGSGSGTDFTLTISSVQAEDLAIYYCQNAYFYPWTFGGGTKLEIKR
notes: human-mouse chimeric antibody, human IgG1/kappa constant regions
B2: 7004-09hu09 (antibody, human IgG1, kappa, V domains shown)
VH: QVQLVQSGAEVKKPGASVKVSCKASGYTFTSYNMHWVRQAPGQGLEWMGTIYPGNGDTSYNQKFQGRVTMTRDKSTSTVYMELSSLRSEDTAVYFCARGGYYGNSLDYWGQGTLVTVSA
VL: DIVMTQSPDSLAVSLGERATINCKSSQSLLNSGNQKNYLAWYQQKPGQPPKLLIYWASTRESGVPDRFSGSGSGTDFTLTISSLQAEDVAVYYCQNAYYYPFTFGQGTKLEIKR
notes: humanized antibody of murine 44F7, human IgG1/kappa constant regions
B3: 7004-09hu10 (antibody, human IgG1, kappa, V domains shown)
VH: B2 VH with N33Y
VL: B2 VL with A40T
notes: as for B2
B4: 7004-09hu15 (antibody, human IgG1, kappa, V domains shown)
VH: B2 VH with N33Y
VL: B2 VL with L29V
notes: as for B2

Tests used:
human CLDN18.2 [1] = target: human CLDN18.2 (human); test: cell-based or functional assay
human CLDN18.2 [2] = target: human CLDN18.2 (human); test: cell-based or functional assay; remark: listed apart in the source
human CLDN18.2 [3] = target: human CLDN18.2 (human); test: cell-based or functional assay; remark: listed apart in the source
human CLDN18.2 [4] = target: T1, human CLDN18.2 (human); test: imaging cytometry (% fluorescent cells), HEK293T-hCLDN18.2 cells
T1 construct: over-expressed on HEK293T or OCUM-1 cells by lentivirus; KATO-III and NUGC4 gastric cancer cells express it naturally; also called hCLDN18.2; hCLDNA18.2
Procedure: (§1) 10,000 cells were plated in 100 μL of DMEM containing 10% FBS per well in a flat-bottomed 96-well plate. After the cells adhered or were settled to the bottom of the wells overnight, the supernatant was removed on the next day. 3-Fold gradient dilution of antibody was performed by diluting 1/3 of the total volume (i.e., 100 μL) in 200 μL of DMEM. 100 μL of the diluted antibody (the supernatants of fused clones or subclones was used in the screening) was added to each well of the cell plate, 100 μL of DMEM was added to the corresponding negative control well, and incubation was carried out for 1 hour at room temperature. After removing the supernatant, 100 μL of secondary antibody (5 μg/mL, diluted in DMEM) was added to each well, and incubated at room temperature for 0.5 hours. The supernatant was removed after staining, followed by washing with PBS once. 100 μL of PBS was added to each well, and then reading was carried out on the cytometer.
(§2) A full-field scanning cytometer (Nexcelom, Celigo® Image Cytometer) was used to measure the readings of the experimental plate. During the measurement, high-speed scanning imaging of the cells in the well was simultaneously performed in the green fluorescent channel corresponding to the secondary antibody and in the bright field channel. The cells that bound the antibody were counted in the image obtained from the green fluorescent channel under the parameters set in accordance with the morphology and fluorescence intensity of the fluorescently labeled cells, and the adhered cells were counted in the image obtained from the bright field channel under the parameters set in accordance with the morphology of the cells. […] The data analysis was performed using GraphPad.

human CLDN18.2 [5] = target: T1, human CLDN18.2; test: as above; remark: listed apart in the source
Procedure: as §1, §2

human CLDN18.2 [6] = target: T1, human CLDN18.2; test: cell-based or functional assay; remark: listed apart in the source
human CLDN18.2 [7] = target: T1, human CLDN18.2; test: cell-based or functional assay; remark: listed apart in the source

Binder	Internalization percentage (%), HEK293T-hCLDN18.2 cells, flow cytometry, 10 µg/mL antibody (human CLDN18.2 [1]) [%]	CDC EC50, HEK293T-hCLDN18.2 target cells, human serum (human CLDN18.2 [2]) [µg/mL]	ADCC EC50, HEK293T-hCLDN18.2 target cells, human PBMC effectors (human CLDN18.2 [3]) [µg/mL]	EC50 (human CLDN18.2 [4]) [µg/mL]	EC50 (human CLDN18.2 [5]) [µg/mL]	ADCC EC50, KATO-III target cells, human PBMC effectors (human CLDN18.2 [6]) [µg/mL]	CDC EC50, KATO-III target cells, human serum (human CLDN18.2 [7]) [µg/mL]
B1	2.5	2.4	0.0156	0.069			
B2					0.051	0.0028	0.33
B3					0.047	0.0033	0.27
B4					0.008	0.0061	0.27
